Patent US20210061914A1 (published 2021)
Where a chain is given by its changes, count along the chain named.

Columns and labels:
[1] = target: HLA-A*02:01_… (HLA-PEPTIDE target G8), soluble (human, enzymatically biotinylated (BirA) for screening and BLI); test: scFv PPE ELISA
[2] = target: HLA-B*35:01_… (HLA-PEPTIDE target G5), soluble (human, enzymatically biotinylated (BirA)); test: scFv PPE ELISA

B1: scFv G8-P2B05 (scFv, V domains shown)
VH: EVQLLESGGGLVQPGGSLRLSCAASGFDFSIYSMNWVRQAPGKGLEWVSAISGSGGSTYYADSVKGRFTISRDNSKNTLYLQMNSLRAEDTAVYYCASNGNYYGSGSYYNYWGQGTLVTVSS
VL: DIQMTQSPSSLSASVGDRVTITCRASQSISRWLAWYQQKPGKAPKLLIYAASSLQSGVPSRFSGSGSGTDFTLTISSLQPEDFATYYCQQYSTYPITIGQGTKVEIK
notes: scFv
[1]
  fold selective binding, target pHLA vs minipool of negative control pHLAs: ≥ 3 fold

B2: scFv R3G8-P5G08 (scFv, V domains shown)
VH: QVQLVQSGAEVKKPGASVKVSCKASGYTFTSNYMHWVRQAPGQGLEWMGWMNPNSGNTGYAQKFQGRVTMTRDTSTSTVYMELSSLRSEDTAVYYCARGLYGDYFLYYGMDVWGQGTTVTVSS
VL: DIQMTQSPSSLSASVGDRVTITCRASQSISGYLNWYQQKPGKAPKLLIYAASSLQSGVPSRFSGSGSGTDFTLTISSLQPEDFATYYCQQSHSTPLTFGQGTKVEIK
notes: scFv
[1]
  fold selective binding, target pHLA vs minipool of negative control pHLAs: ≥ 3 fold

B3: scFv G5R4-P2B10 (scFv, V domains shown)
VH: QVQLVQSGAEVKKPGASVKVSCKASGGTFSSYAISWVRQAPGQGLEWMGWMNPDSGSTGYAQRFQGRVTMTRDTSTSTVYMELSSLRSEDTAVYYCARGHSSGWYYYYGMDVWGQGTTVTVSS
VL: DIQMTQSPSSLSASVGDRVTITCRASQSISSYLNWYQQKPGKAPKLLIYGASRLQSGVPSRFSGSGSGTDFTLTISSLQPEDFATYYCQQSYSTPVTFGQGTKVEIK
notes: scFv
[2]
  fold selective binding, target pHLA vs minipool of negative control pHLAs: ≥ 3 fold

B4: scFv G8-P1H08 (scFv, V domains shown)
VH: QVQLVQSGAEVKKPGASVKVSCKASGYTFGNYFMHWVRQAPGQGLEWMGMVNPSGGSETFAQKFQGRVTMTRDTSTSTVYMELSSLRSEDTAVYYCAASTWIQPFDYWGQGTLVTVSS
VL: DIQMTQSPSSLSASVGDRVTITCRASQGINSYLAWYQQKPGKAPKLLIYDASNLETGVPSRFSGSGSGTDFTLTISSLQPEDFATYYCQQHNSYPPTFGQGTKLEIK
notes: scFv
[1]
  fold selective binding, target pHLA vs minipool of negative control pHLAs: ≥ 3 fold

B5: scFv G8-P2E06 (scFv, V domains shown)
VH: QVQLVQSGAEVKKPGASVKVSCKASGYTLTTYYMHWVRQAPGQGLEWMGWINPNSGGTNYAQKFQGRVTMTRDTSTSTVYMELSSLRSEDTAVYYCARAVYYDFWSGPFDYWGQGTLVTVSS
VL: B4 VL with N30S, S31N, Y32S, D50A, N53S, E55Q, T56S, H91A, Y94F, P96W
notes: scFv
[1]
  fold selective binding, target pHLA vs minipool of negative control pHLAs: ≥ 3 fold

B6: scFv G8-P1C01 (scFv, V domains shown)
VH: QVQLVQSGAEVKKPGASVKVSCKASGGTFSSHAISWVRQAPGQGLEWMGVIIPSGGTSYTQKFQGRVTMTRDTSTSTVYMELSSLRSEDTAVYYCARGDYYDSSGYYFPVYFDYWGQGTLVTVSS
VL: B4 VL with G28N, N30Y, S31T, A34N, H91A, S93G, Y94F, P96L, Q100G, L104V
notes: scFv
[1]
  fold selective binding, target pHLA vs minipool of negative control pHLAs: ≥ 3 fold

B7: scFv G5R4-P4A07 (scFv, V domains shown)
VH: QVQLVQSGAEVKKPGASVKVSCKASGYTFTSYYMHWVRQAPGQGLEWMGWMNPNSGNTGYAQKFQGRVTMTRDTSTSTVYMELSSLRSEDTAVYYCARELPIGYGMDVWGQGTTVTVSS
VL: not shown
notes: scFv
[2]
  fold selective binding, target pHLA vs minipool of negative control pHLAs: ≥ 3 fold

B8: scFv G5-P3G01 (scFv, V domains shown)
VH: QVQLVQSGAEVKKPGASVKVSCKASGGTFSGYLVSWVRQAPGQGLEWMGWINPNSGGTNTAQKFQGRVTMTRDTSTSTVYMELSSLRSEDTAVYYCAREGYGMDVWGQGTTVTVSS
VL: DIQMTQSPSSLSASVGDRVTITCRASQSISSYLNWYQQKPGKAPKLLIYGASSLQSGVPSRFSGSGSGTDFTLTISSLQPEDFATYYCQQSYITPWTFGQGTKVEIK
[2]
  fold selective binding, target pHLA vs minipool of negative control pHLAs: ≥ 3 fold

B9: scFv G5R4-P2H8 (scFv, V domains shown)
VH: EVQLLESGGGLVQPGGSLRLSCAASGFTFTSYSMHWVRQAPGKGLEWVSSITSFTNTMYYADSVKGRFTISRDNSKNTLYLQMNSLRAEDTAVYYCAKDLGSYGGYYWGQGTLVTVSS
VL: not shown
notes: scFv
[2]
  fold selective binding, target pHLA vs minipool of negative control pHLAs: ≥ 3 fold

B10: scFv G8-P2C11 (scFv, V domains shown)
VH: QVQLVQSGAEVKKPGASVKVSCKASGYTFTSYAMNWVRQAPGQGLEWMGWINPNSGGTNYAQKFQGRVTMTRDTSTSTVYMELSSLRSEDTAVYYCAKDPFWSGHYYYYGMDVWGQGTTVTVSS
VL: not shown
notes: scFv
[1]
  fold selective binding, target pHLA vs minipool of negative control pHLAs: ≥ 3 fold

B11: scFv G5-P4E04 (scFv, V domains shown)
VH: QVQLVQSGAEVKKPGASVKVSCKASGGTFSSYGISWVRQAPGQGLEWMGWINPNSGVTKYAQKFQGRVTMTRDTSTSTVYMELSSLRSEDTAVYYCARGDYYFDYWGQGTLVTVSS
VL: DIQMTQSPSSLSASVGDRVTITCRASQSISRFLNWYQQKPGKAPKLLIYGASRPQSGVPSRFSGSGSGTDFTLTISSLQPEDFATYYCQQSYSTPLTFGQGTKVEIK
notes: scFv
[2]
  fold selective binding, target pHLA vs minipool of negative control pHLAs: ≥ 3 fold

B12: scFv G5-P1C12 (scFv, V domains shown)
VH: QVQLVQSGAEVKKPGSSVKVSCKASGGTFSNFGVSWLRQAPGQGLEWMGGIIPILGTANYAQKFQGRVTITADESTSTAYMELSSLRSEDTAVYYCATPTNSGYYGPYYYYGMDVWGQGTTVTVSS
VL: B11 VL with R31S, F32W, N34A, G50A, R53T, P54L, T94I, Q100G
notes: scFv
[2]
  fold selective binding, target pHLA vs minipool of negative control pHLAs: ≥ 3 fold

B13: scFv R3G8-P2E04 (scFv, V domains shown)
VH: QVQLVQSGAEVKKPGSSVKVSCKASGGTFSSYGVSWVRQAPGQGLEWMGWISPYSGNTDYAQKFQGRVTITADESTSTAYMELSSLRSEDTAVYYCARGLYYMDVWGKGTTVTVSS
VL: B4 VL with G28S, N30S, Y32W, H91S, N92Y, Y94T, P96L, Q100G
notes: scFv
[1]
  fold selective binding, target pHLA vs minipool of negative control pHLAs: ≥ 3 fold

B14: scFv R3G8-P2C10 (scFv, V domains shown)
VH: QVQLVQSGAEVKKPGASVKVSCKASGYTFTSYYMHWVRQAPGQGLEWMGWINPYSGGTNYAQKFQGRVTMTRDTSTSTVYMELSSLRSEDTAVYYCAKGGIYYGSGSYPSWGQGTLVTVSS
VL: B1 VL with S28D, I29V, R31T, Y91S, S92H, T93S, Y94T, I96Q, I98F
notes: scFv
[1]
  fold selective binding, target pHLA vs minipool of negative control pHLAs: ≥ 3 fold

B15: scFv G5-P1B12 (scFv, V domains shown)
VH: EVQLLESGGGLVQPGGSLRLSCAASGFTFSNSDMNWVRQAPGKGLEWVASISSSGGYINYADSVKGRFTISRDNSKNTLYLQMNSLRAEDTAVYYCAKVNWNDGPYFDYWGQGTLVTVSS
VL: B1 VL with R31S, Y91A, S92N, T93S, Y94F, I96L, I98F, Q100G
notes: scFv
[2]
  fold selective binding, target pHLA vs minipool of negative control pHLAs: ≥ 3 fold

B16: scFv G5-P1-E05 (scFv, V domains shown)
VH: QVQLVQSGAEVKKPGASVKVSCKASGYTFTSYNMHWVRQAPGQGLEWMGWINPNSGGTNYAQKFQGRVTMTRDTSTSTVYMELSSLRSEDTAVYYCARDVMDVWGQGTTVTVSS
VL: B11 VL with S28G, R31N, F32Y, G50Y, R53S, P54L, S91T, S93M, T94M, L96Y
notes: scFv
[2]
  fold selective binding, target pHLA vs minipool of negative control pHLAs: ≥ 3 fold

B17: scFv G8-P1D02 (scFv, V domains shown)
VH: EVQLLESGGGLVQPGGSLRLSCAASGFTFSSYWMSWVRQAPGKGLEWVSSISGRGDNTYYADSVKGRFTISRDNSKNTLYLQMNSLRAEDTAVYYCARASGSGYYYYYGMDVWGQGTTVTVSS
VL: B11 VL with R24Q, S28D, R31N, F32Y, G50A, R53S, P54L, T94A, L96Y, Q100G
notes: scFv
[1]
  fold selective binding, target pHLA vs minipool of negative control pHLAs: ≥ 3 fold

B18: scFv R3G8-P4F05 (scFv, V domains shown)
VH: B2 VH with T30S, S31N, N32M, M34L, M51I, S55T, N57D, G59N, K63T, T118K
VL: B11 VL with S28G, R31N, F32Y, N34A, G50A, R53T, P54L, Q100G
notes: scFv
[1]
  fold selective binding, target pHLA vs minipool of negative control pHLAs: ≥ 3 fold

B19: scFv R3G8-P5C03 (scFv, V domains shown)
VH: QVQLVQSGAEVKKPGASVKVSCKASGYTFTSYYMHWVRQAPGQGLEWMGWMNPNSGNTGYAQKFQGRVTMTRDTSTSTVYMELSSLRSEDTAVYYCARGLLGFGEFLTYGMDVWGQGTLVTVSS
VL: B11 VL with S28G, R31N, F32W, N34A, G50A, R53T, P54L, S91T, L96W, V104L
notes: scFv
[1]
  fold selective binding, target pHLA vs minipool of negative control pHLAs: ≥ 3 fold

B20: scFv G5R4-P4B01 (scFv, V domains shown)
VH: QVQLVQSGAEVKKPGSSVKVSCKASGGTFSSYAISWVRQAPGQGLEWMGGIIPIVGTANYAQKFQGRVTITADESTSTAYMELSSLRSEDTAVYYCARGGSYYYYGMDVWGQGTTVTVSS
VL: not shown
notes: scFv
[2]
  fold selective binding, target pHLA vs minipool of negative control pHLAs: ≥ 3 fold

B21: scFv G5R4-P3G05 (scFv, V domains shown)
VH: QVQLVQSGAEVKKPGASVKVSCKASGYTFTNYYMHWVRQAPGQGLEWMGIINPSGGSTSYAQKFQGRVTMTRDTSTSTVYMELSSLRSEDTAVYYCARSWFGGFNYHYYGMDVWGQGTTVTVSS
VL: DIQMTQSPSSLSASVGDRVTITCQASEDISNHLNWYQQKPGKAPKLLIYDALSLQSGVPSRFSGSGSGTDFTLTISSLQPEDFATYYCQQANSFPFTFGPGTKVDIK
notes: scFv
[2]
  fold selective binding, target pHLA vs minipool of negative control pHLAs: ≥ 3 fold

B22: scFv G5R4-P1H11 (scFv, V domains shown)
VH: EVQLLESGGGLVKPGGSLRLSCAASGFTFSDYYMSWVRQAPGKGLEWVSYISSSSSYTNYADSVKGRFTISRDDSKNTLYLQMNSLKTEDTAVYYCARDVVANFDYWGQGTLVTVSS
VL: EIVMTQSPATLSVSPGERATLSCRASQSVSSNLAWYQQKPGQAPRLLIYAASARASGIPARFSGSGSGTEFTLTISSLQSEDFAVYYCQQYGSWPRTFGQGTKVEIK
notes: scFv
[2]
  fold selective binding, target pHLA vs minipool of negative control pHLAs: ≥ 3 fold

B23: scFv R3G8-P5F02 (scFv, V domains shown)
VH: QVQLVQSGAEVKKPGASVKVSCKASGYTFTGYYIHWVRQAPGQGLEWMGVINPSGGSTTYAQKLQGRVTMTRDTSTSTVYMELSSLRSEDTAVYYCARDRDSSWTYYYYGMDVWGQGTTVTVSS
VL: B22 VL with S30G, S31N, N32S, A50G, A53T, S56T, W94S, R96Y
notes: scFv
[1]
  fold selective binding, target pHLA vs minipool of negative control pHLAs: ≥ 3 fold

B24: scFv G5R4-P1D06 (scFv, V domains shown)
VH: QVQLVQSGAEVKKPGASVKVSCKASGYTFTSYDINWVRQAPGQGLEWMGWINPNSGDTKYSQKFQGRVTMTRDTSTSTVYMELSSLRSEDTAVYYCARDGTRYYGMDVWGQGTTVTVSS
VL: not shown
notes: scFv
[2]
  fold selective binding, target pHLA vs minipool of negative control pHLAs: ≥ 3 fold
